B1: EccD3 (natural protein)
chain: MSENTVMPIVRVAVLAAGDDGGRLTEMALPSELPLREILPAVQRIVQPARENDGAADPAAAPNPVRLSLAPIGGAPFSLDATLDTVGVVDGDLLALQAVPSGPPAPRIVEDIADAAVIFSEARRRQWGPTHIARGAALALIGLILVGTGLSVAHRVITGDLLGQFIVSGIALATVIAALAVRNRSAVLATSLAVTALVPVAAAFALGVPGDFGAPNVLLAAAGVAAWSLISMAGSPDDRGIAVFTATAVTGVGVLLVAGAASLWVISSDVIGCALVLLGLIVTVQAAQLSAMWARFPLPVIPAPGDPTPAARPLSVLADLPRRVRVSQAHQTGVIAAGVLLGVAGSVALVSSANASPWAWYIVVAAAAGAALRARVWDSAACKAWLLGHSYLLAVALLVAFVIGDRYQAALWALAALAVLVLVWIVAALNPKIASPDTYSLPMRRMVGFLATGLDASLIPVMALLVGLFSLVLDR
B2: EccB3 (natural protein)
chain: MTGPVNPDDRRSFSSRTPVNENPDGVQYRRGFVTRHQVSGWRFVMRRIASGVALHDTRMLVDPLRTQSRAVLTGALILVTGLVGCFIFSLFRPGGVPGNNAILADRSTSALYVRVGEQLHPVLNLTSARLISGSPDNPTMVKTSEIDKFPRGNLLGIPGAPERMVQNAATDAEWTVCDAVGGANPGVTVIAGPLGADGERAAPLPPDHAVLVHSDAEPNPGDWLLWDGKRSPIDLADRAVTDALGLGGQALAPRPIAAGLFNAVPAAPALTAPVIPDAGAAPQFELSLPVPVGAVVVAYDADNTARYYAVLSDGLQPISPVLAAILRNTDSHGFAQPPRLGPDEVARTPMSRGLDTSAYPDNPVTLVEASAHPVTCAHWTKPSDAAESSLSVLSGAVLPLAEGLHTVDLVGAGAGGAANRVALTPGTGYFVQTVGAEPGSPTAGSMFWVSDTGVRYGIDTAEDDKVVAALGLSTSPLPVPWSVLSQFAAGPALSRGDALVAHDAVSTNPNSARMEASR
B3: EccE3 (natural protein)
chain: MTARIALASLFVVAAVLAQPWQTTTQRWVLGVSIAAVIVLLAWWKGMFLTTRIGRALAMVRRNRAEDTVETDAHRATVVLRVDPAAPAQLPVVVGYLDRYGITCDKVRITHRDAGGTRRSWISLTVDAVDNLAALQARSARIPLQDTTEVVGRRLADHLREQGWTVTVVEGVDTPLPVSGKETWRGVADDAGVVAAYRVKVDDRLDEVLAEIGHLPAEETWTALEFTGSPAEPLLTVCAAVRTSDRPAAKAPLAGLTPARGRHRPALAALNPLSTERLDGTAVPLPAVVRTSVKGSVEHEAAQEAGHPA

Assay in all cases: cryo-EM structure
The data set “EccB3” deals with B2.
The target of a further data set is T1, EccC3 (M. smegmatis (endogenous in M. …, UniProt A0QQ40 1-1325)).
T1 sequence: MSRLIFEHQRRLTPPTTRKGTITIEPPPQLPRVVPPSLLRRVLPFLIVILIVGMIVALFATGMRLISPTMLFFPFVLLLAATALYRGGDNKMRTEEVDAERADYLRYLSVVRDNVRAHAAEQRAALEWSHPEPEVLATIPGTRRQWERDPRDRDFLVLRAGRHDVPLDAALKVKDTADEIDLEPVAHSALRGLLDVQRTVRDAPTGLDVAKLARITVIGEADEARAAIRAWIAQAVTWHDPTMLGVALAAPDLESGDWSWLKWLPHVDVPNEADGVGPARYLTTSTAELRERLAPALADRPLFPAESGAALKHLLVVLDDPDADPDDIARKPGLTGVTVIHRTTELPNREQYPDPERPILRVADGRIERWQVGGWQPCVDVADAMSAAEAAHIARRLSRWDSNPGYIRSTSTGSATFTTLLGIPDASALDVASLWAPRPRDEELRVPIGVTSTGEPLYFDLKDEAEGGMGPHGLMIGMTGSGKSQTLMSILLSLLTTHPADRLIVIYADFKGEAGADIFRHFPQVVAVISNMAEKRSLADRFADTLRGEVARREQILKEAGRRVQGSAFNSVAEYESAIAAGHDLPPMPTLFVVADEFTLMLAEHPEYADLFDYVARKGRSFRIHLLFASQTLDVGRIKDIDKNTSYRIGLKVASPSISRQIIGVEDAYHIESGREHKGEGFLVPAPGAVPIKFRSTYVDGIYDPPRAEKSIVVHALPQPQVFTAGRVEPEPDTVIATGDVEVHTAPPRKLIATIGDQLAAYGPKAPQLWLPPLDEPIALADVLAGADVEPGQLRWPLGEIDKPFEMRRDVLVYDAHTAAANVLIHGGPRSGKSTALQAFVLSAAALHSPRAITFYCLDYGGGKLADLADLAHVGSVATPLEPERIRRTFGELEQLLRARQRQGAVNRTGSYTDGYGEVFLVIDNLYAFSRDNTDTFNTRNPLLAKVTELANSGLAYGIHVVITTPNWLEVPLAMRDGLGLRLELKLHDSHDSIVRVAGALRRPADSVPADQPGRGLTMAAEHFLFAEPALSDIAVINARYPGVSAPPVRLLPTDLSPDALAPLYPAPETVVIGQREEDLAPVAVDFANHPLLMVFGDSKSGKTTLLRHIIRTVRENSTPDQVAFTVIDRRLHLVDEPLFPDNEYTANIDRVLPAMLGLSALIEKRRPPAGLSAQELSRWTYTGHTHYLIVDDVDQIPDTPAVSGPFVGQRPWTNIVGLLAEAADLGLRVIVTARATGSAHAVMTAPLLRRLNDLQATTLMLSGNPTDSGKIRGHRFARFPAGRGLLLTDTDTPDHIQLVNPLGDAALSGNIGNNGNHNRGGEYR

The data set “cryo-EM structure” concerns the molecule itself.
The data set “EccD3” deals with B1.

Broadly, the stoichiometry N is a count of units in the complex or per binding partner.

As for B1, the binding result in the data set with EccB3 and with EccC3 was “binds” in each case. In “cryo-EM structure”, the “stoichiometry N” value stood at 2.
In the case of B2, the binding result with EccC3 and in “cryo-EM structure” was “binds” throughout.
As to B3, in the data set with EccD3, the binding result is “binds”.

These data come from paper doi:10.1101/800169 (bioRxiv, 2019).
